The DeepSol protein solubility set

assay: soluble on expression in E. coli; label from the status in PepcDB or PDB records

Which “soluble on expression in E. coli” value does the source give for “ERFQLLMTQIGLQDVTTYEEFTKDAKIEKLVADKKNKTWQFHLHVPQIFPAALFHMMDVGMKRAFSQIAETEMQIVPENQTINETLIQEYWNLIVEPIGKQSPMIGKLLMEQKPTFKEPHFIEVAVHNDMEEATIQQRFQAKIIEN” here?
The value was “not soluble”.

For “VGVAVDRDELLGANAPPQGGSFRFYLDGERWEWSDSVARMHGYQPGEVIPTNEILLSHKHPDDQSQVAALFDKMIHAGEPFSSKHRIIDTDRRIHHVIVVGDRMLDENGQVIGTSGYYIDVTETLETDLREFNEALTEAVAGLEKSRAVIEQAKGALMLVYGISSERAFGILTWRSQETNIKLHTLAERFVGALAAEATLPASFRARFDHLLLTAHEYPDEQADHPA”, which “soluble on expression in E. coli” value is on record?
Its value is “not soluble”.

With “MKAVINNTNPENTPPTRAIKRLERDVLRMGALVEQSFRLSHQALFARDLTAAEELPRLDKKIDRFYRQIESDCTSIITLQAPTAQDLRCLSAFMQLVRDLERIGDYAKDLAEIAIKIFPYPPHASLPEIALMSNNAQAMLATSLLALADLDEINGRRLKYLDDDVDHAYNQLYHTLAHQKDVPGVIEPILLLTLAIRCLERMADHATNIGQRVAYIVTGQR” as the sequence, how does the “soluble on expression in E. coli” value read?
The value was “not soluble”.

For “MSLGLPKMEVFQEYYGLPPPPGAIGPFLRLNPGDIVELTKAEAEQNWWEGRNTSTNEIGWFPCNRVKPYVHGPPQDLSVHLWYAGPMERAGAESILANRSDGTFLVRQRVKDAAEFAISIKYNVEVKHIKIMTAEGLYRITEKKAFRGLTELVEFYQQNSLKDCFKSLDTTLQFPFKEPEKRTISRPAVGSTKYFGTAKARYDFCARDRSELSLKEGDIIKILNKKGQQGWWRGEIYGRVGWFPANYVEEDYSEEGHHHHHH”, which “soluble on expression in E. coli” value is on record?
Its value is “soluble”.

Which “soluble on expression in E. coli” value does the source give for “KNFPVLHLHREDFHDIRGTISLHLKTGFPMGFQMSVMCIGQLSMQTVVNSLGTAAVAGYTAASKADQLSVLVNNAMMTAISNYVAQNFGAGKRERIRQGVR” here?
The value was “not soluble”.

With “MSNPLFPTESAALTLDGPVGPLDVAVDLPEPDVAVQPVTAIVCHPLSTEGGSMHNKVVTMAARALRELGITVVRFNFRSVGTSAGSFDHGDGEQDDLRAVAEWVRAQRPTDTLWLAGFSFGAYVSLRAAAALEPQVLISIAPPAGRWDFSDVQPPAQWLVIQGDADEIVDPQAVYDWLETLEQQPTLVRMPDTSHFFHRKLIDLRGALQHGVRRWLPATP” as the sequence, how does the “soluble on expression in E. coli” value read?
The value was “soluble”.

Which “soluble on expression in E. coli” value does the source give for “MLKANVFCAGPVEALILDWAGTTIDFGSLAPVYAFMELFKQEGIEVTQAEAREPMGTEKSEHIRRMLGNSRIANAWLSIKGQASNEEDIKRLYDLFAPIQTRIVAQRSQLIPGWKEVFDKLIAQGIKVGGNTGYGPGMMAPALIAAKEQGYTPASTVFATDVVRGRPFPDMALKVALELEVGHVNGCIKVDDTLPGIEEGLRAGMWTVGVSCSGNEVGLDREDWQALSSDEQQSYRQHAEQRLFNAGAHYVIDSVADLETVITDVNRRLARGEKP” here?
The value was “soluble”.

For “PITNGHLDLIERAAQMFDEVIIAVAASPSKNTLFTLEERVEFARQVTSHLDNVSAKGFSGLLVDFAKAEKANVLIRGLRTTVDFEYEFGLTNMYRRLMPGLESVFLTPAEEHAFISSTLVREVAIHGGNVDEFVPAIVANALHQKKKI”, which “soluble on expression in E. coli” value is on record?
Its value is “not soluble”.

For “MSLKRLIMATMVTAILASSTVWAADNAPVAAQQQTQQVQQTQKTAAAAERISEQGLYAMRDVQVARLALFHGDPEKAKELTNEASALLSDDSTEWAKFAKPGKKTNLNDDQYIVINASVGISESYVATPEKEAAIKIANEKMAKGDKKGAMEELRLAGVGVMENQYLMPLKQTRNALADAQKLLDKKQYYEANLALKGAEDGIIVDSEALFVNEGHHHHHH”, which “soluble on expression in E. coli” value is on record?
The value was “soluble”.

With MQKHFDCVLKHLLSRCCARRRESSFRPAPAGKVFLD as the sequence, how does the “soluble on expression in E. coli” value read?
Its value is “not soluble”.
